The labels stand for the following.
B1: PR302029 (antibody, human IgG1, kappa, V domains shown)
VH: EVQLVESGGGLVQPGGSLRLSCAASGFTFSNYWMNWVRQAPGKGLEWVGEIRLKSNNYATHYAESVKGRFTISRDDSKNSLYLQMNSLKTEDTAVYYCTVGTLVYWGQGTLVTVSS
VL: DIVLTQSPDSLAVSLGERATINCRASQSVSTSTYNYMHWFQQKPGQPPKLLIKFASNLESGVPDRFSGSGSGTDFTLTISSLQAEDTAVYYCQHSWEIPYTFGQGTKLEIKR
notes: humanized variant of PR301777
B2: PR302041 (antibody, human IgG1, kappa, V domains shown)
VH: B1 VH with V2M, G49A, N79S, L81V
VL: DIQLTQSPSSLSASVGDRVTITCRASQSVSTSTYNYMHWFQQKPGKAPKLLIKFASNLESGVPSRFSGSGSGTDFTLTISSLQPEDTATYYCQHSWEIPYTFGQGTKLEIKR
notes: humanized variant of PR301777
B3: PR302038 (antibody, human IgG1, kappa, V domains shown)
VH: B1 VH with V2M, G49A, N79S, L81V
VL: EIVLTQSPATLSLSPGERATLSCRASQSVSTSTYNYMHWFQQKPGQAPRLLIKFASNLESGIPARFSGSGSGTDFTLTISSLEPEDTAVYYCQHSWEIPYTFGQGTKLEIKR
notes: humanized variant of PR301777
B4: PR302048 (antibody, human IgG1, kappa, V domains shown)
VH: B1 VH with R19K, P41S, S80T, L81A, V100R
VL: B2 VL
notes: humanized variant of PR301777
B5: PR302069 (antibody, human IgG1, kappa, V domains shown)
VH: B1 VH with V2M, Q13K, G49A, N79S, S80T, L81V
VL: B2 VL
notes: humanized variant of PR301777
B6: PR302034 (antibody, human IgG1, kappa, V domains shown)
VH: B1 VH
VL: B2 VL
notes: humanized variant of PR301777
B7: PR302031 (antibody, human IgG1, kappa, V domains shown)
VH: B1 VH
VL: B3 VL
notes: humanized variant of PR301777
B8: PR302043 (antibody, human IgG1, kappa, V domains shown)
VH: B1 VH with R19K, P41S, S80T, L81A, V100R
VL: B1 VL
notes: humanized variant of PR301777
B9: PR302045 (antibody, human IgG1, kappa, V domains shown)
VH: B1 VH with R19K, P41S, S80T, L81A, V100R
VL: B3 VL
notes: humanized variant of PR301777
B10: PR302050 (antibody, human IgG1, kappa, V domains shown)
VH: B1 VH with V2M, R19K, P41S, G49A, N79S, S80T, L81V
VL: B1 VL
notes: humanized variant of PR301777
B11: PR302052 (antibody, human IgG1, kappa, V domains shown)
VH: B1 VH with V2M, R19K, P41S, G49A, N79S, S80T, L81V
VL: B3 VL
notes: humanized variant of PR301777
B12: PR302066 (antibody, human IgG1, kappa, V domains shown)
VH: B1 VH with V2M, Q13K, G49A, N79S, S80T, L81V
VL: B3 VL
notes: humanized variant of PR301777
B13: PR302064 (antibody, human IgG1, kappa, V domains shown)
VH: B1 VH with V2M, Q13K, G49A, N79S, S80T, L81V
VL: B1 VL
notes: humanized variant of PR301777
B14: PR005656 (antibody, human IgG1, kappa, V domains shown)
VH: EVQLVESGGVLVQPGGSLRLSCAASGFTFSSYWMTWVRQAPGKGLEWVANIKQEGSEKYYVDSVKGRFTISRDNAKNSLFLQMNSLRAEDTAVYYCARTLIFDYWGQGTLVTVSS
VL: DIVMTQSPLSLPVTPGEPASISCRSSQSLLHSTGYNSLEWYLQKPGQSPQLLIYLGSNRASGVPDRFSGSGSGTDFTLKISRVEAEDVGIYYCMQTLQTPITFGQGTRLEIKR
notes: PTM-removal variant of PR004290
B15: PR006147 (antibody, human IgG1, kappa, V domains shown)
VH: B14 VH with E54D, G55A
VL: B14 VL with N36H
notes: as for B14
B16: PR006144 (antibody, human IgG1, kappa, V domains shown)
VH: B14 VH
VL: B14 VL with S37P
notes: as for B14
B17: PR005658 (antibody, human IgG1, kappa, V domains shown)
VH: B14 VH with E54D
VL: B14 VL with N36Q
notes: as for B14
B18: PR006148 (antibody, human IgG1, kappa, V domains shown)
VH: B14 VH with E54D, G55A
VL: B14 VL with S37P
notes: as for B14
B19: PR005660 (antibody, human IgG1, kappa, V domains shown)
VH: B14 VH
VL: B14 VL with N36Q
notes: as for B14
B20: PR006142 (antibody, human IgG1, kappa, V domains shown)
VH: B14 VH
VL: B14 VL with N36D
notes: as for B14
B21: PR006146 (antibody, human IgG1, kappa, V domains shown)
VH: B14 VH with E54D, G55A
VL: B14 VL with N36D
notes: as for B14
B22: PR005662 (antibody, human IgG1, kappa, V domains shown)
VH: B14 VH with E54D, G55A
VL: B14 VL with N36Q
notes: as for B14

The results in this text go back to patent publication US20260042834A1 (HBM ALPHA THERAPEUTICS, published 2026).

Where a chain is given by its changes, count along the chain named.

Usually EC50 stands for the midpoint of the concentration-response curve.

The first test deals with T1, CRH (CT-Biotin) (human and mouse (same sequence), biotin on an added C-terminal K (CRH-K-Biotin)).
T1 construct: also called Peptide 4 (CRH-Biotin)
T1 peptide: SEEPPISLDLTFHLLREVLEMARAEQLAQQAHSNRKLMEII
Kind of test: ELISA, biotinylated CRH on streptavidin plate. On the procedure:
(§1) Streptavidin (Thermo, Cat: 21125) was diluted in PBS to a concentration of 2 μg/ml. 100 μl of diluted streptavidin was added per well to ELISA microplates, and the plates were incubated overnight at 4° C. […] 100 μL of 3,3′,5,5′-tetramethylbenzidine (TMB) substrate (Biopanda, Cat: TMB-S-003) was added, and the plates were incubated at room temperature for 15 minutes. 100 μL of ELISA stopping solution (Solarbio, Cat #: C1058) was added to terminate the reaction, and the optical density at 450 nm (OD450 nm) was determined by an ELISA plate reader (Molecular Devices, Spectra max 384 plus).
On to B1, for which the EC50 was 0.027 nM.

Molecule B2 returned an EC50 of 0.035 nM.

As to B3, the EC50 was found to be 0.04 nM.

With B4, the midpoint of the response, the EC50, lay at 0.024 nM.

In turn, B5 gave an EC50 of 0.016 nM.

Molecule B6 showed an EC50 of 0.022 nM.

Consider B7, for which the EC50 was found to be 0.028 nM.

For the molecule B8, the EC50 came to 0.03 nM.

Turning to B9, the EC50 was found to be 0.046 nM.

Molecule B10 showed an EC50 of 0.01 nM.

As to B11, it took 0.018 nM to reach a half-maximal effect (EC50).

Consider B12, for which a half-maximal response (EC50) required 0.019 nM.

Molecule B13 showed an EC50 of 0.022 nM.

For a further test, the target named is T2, CRH (NT-Biotin) (human and mouse (same sequence), not fully specified; biotin at the N-terminus).
T2 peptide: T1 peptide
The test is described as follows: ELISA, biotinylated CRH on streptavidin plate. As to the method:
as §1
In turn, B1 came in with an EC50 of 0.03 nM.

Take B2: the response was half-maximal at 0.063 nM (EC50).

B3: the 50% effective concentration (EC50) was 0.065 nM.

Molecule B4 showed an EC50 of 0.043 nM.

On to B5, for which a half-maximal response (EC50) required 0.061 nM.

Molecule B6 showed an EC50 of 0.026 nM.

In turn, B7 returned an EC50 of 0.037 nM.

Consider B8, for which a half-maximal effect (EC50) was put at 0.046 nM.

As for B9, it took 0.128 nM to reach a half-maximal effect (EC50).

On to B10, for which the EC50 is 0.021 nM.

Take B11: a half-maximal effect (EC50) was put at 0.048 nM.

Molecule B12 yielded an EC50 of 0.077 nM.

B13 displayed an EC50 of 0.062 nM.

Another test has as its target T3, corticotropin-releasing hormone (CRH) peptide (human and mouse (same sequence), not fully specified).
T3 peptide: T1 peptide
Kind of test: cell-based or functional assay.
For the molecule B14, the “hCRHR1 Luciferase Reporter Assay IC50” value is 1.74 nM and the “mCrhr1 Luciferase Reporter Assay IC50” value was determined as 4.26 nM.

B15: the “hCRHR1 Luciferase Reporter Assay IC50” value amounted to 12.1 nM and the “mCrhr1 Luciferase Reporter Assay IC50” value is 39.9 nM.

B16: the “hCRHR1 Luciferase Reporter Assay IC50” value is 1.2 nM and the “mCrhr1 Luciferase Reporter Assay IC50” value was 3.6 nM.

As to B17, the “hCRHR1 Luciferase Reporter Assay IC50” value came out at 16.2 nM and the “mCrhr1 Luciferase Reporter Assay IC50” value turned out to be 29.7 nM.

Consider B18, for which the “hCRHR1 Luciferase Reporter Assay IC50” value worked out at 2.5 nM and the “mCrhr1 Luciferase Reporter Assay IC50” value amounted to 4.87 nM.

As for B19, the “hCRHR1 Luciferase Reporter Assay IC50” value came to 10.3 nM and the “mCrhr1 Luciferase Reporter Assay IC50” value was determined as 29 nM.

Take B20: the “hCRHR1 Luciferase Reporter Assay IC50” value is 4.4 nM.

Consider B21, for which the “hCRHR1 Luciferase Reporter Assay IC50” value came out at 4.89 nM and the “mCrhr1 Luciferase Reporter Assay IC50” value was 18 nM.

Take B22: the “hCRHR1 Luciferase Reporter Assay IC50” value stood at 15.8 nM and the “mCrhr1 Luciferase Reporter Assay IC50” value turned out to be 42.4 nM.

A further test concerns the target T3, corticotropin-releasing hormone (CRH) …. Kind of test: cell-based or functional assay. The source holds these as a separate data set.
As for B13, the “hCRHR1 Luciferase Reporter Assay IC50” value turned out to be 0.989 nM and the “mCrhr1 Luciferase Reporter Assay IC50” value was found to be 4.92 nM.

The next test deals with T1, CRH (CT-Biotin). The test is described as follows: ELISA, biotinylated CRH on streptavidin plate. The source holds these as a separate data set. As to the method:
as §1
(ELISA stands for enzyme-linked immunosorbent assay.)
B14: the EC50 worked out at 0.033 nM.

Regarding B15, the EC50 was determined as 0.027 nM.

Take B16: the EC50 was found to be 0.032 nM.

For the molecule B17, the EC50 was 0.044 nM.

Consider B18, for which a half-maximal response (EC50) required 0.03 nM.

In turn, B19 had an EC50 of 0.051 nM.

With B20, the EC50 was determined as 0.046 nM.

On to B21, for which the concentration giving a half-maximal response (EC50) worked out at 0.024 nM.

As for B22, the EC50 is 0.052 nM.

The target in the next test is T2, CRH (NT-Biotin). Kind of test: ELISA, biotinylated CRH on streptavidin plate. The source holds these as a separate data set. On the procedure:
as §1
As to B14, the EC50 was 0.026 nM.

Regarding B15, the EC50 came to 0.023 nM.

In turn, B16 showed an EC50 of 0.033 nM.

The molecule B17 came in with an EC50 of 0.026 nM.

Molecule B18 gave an EC50 of 0.035 nM.

B19 came in with an EC50 of 0.033 nM.

B20 displayed an EC50 of 0.048 nM.

With B21, the response was half-maximal at 0.025 nM (EC50).

For the molecule B22, a half-maximal response (EC50) required 0.023 nM.

The next test addresses T3, corticotropin-releasing hormone (CRH) …. The test is described as follows: cell-based or functional assay. This is another data set of the same source.
As for B1, the “hCRHR1 Luciferase Reporter Assay IC50” value amounted to 2.65 nM and the “mCrhr1 Luciferase Reporter Assay IC50” value was determined as 13.9 nM.

For the molecule B2, the “hCRHR1 Luciferase Reporter Assay IC50” value turned out to be 2.54 nM and the “mCrhr1 Luciferase Reporter Assay IC50” value came to 7.17 nM.

As for B3, the “hCRHR1 Luciferase Reporter Assay IC50” value was determined as 3.34 nM and the “mCrhr1 Luciferase Reporter Assay IC50” value stood at 10.1 nM.

For the molecule B4, the “hCRHR1 Luciferase Reporter Assay IC50” value was found to be 6.66 nM and the “mCrhr1 Luciferase Reporter Assay IC50” value was determined as 33.3 nM.

Regarding B5, the “hCRHR1 Luciferase Reporter Assay IC50” value is 1.54 nM and the “mCrhr1 Luciferase Reporter Assay IC50” value amounted to 4.4 nM.

For the molecule B6, the “hCRHR1 Luciferase Reporter Assay IC50” value was 6.87 nM and the “mCrhr1 Luciferase Reporter Assay IC50” value amounted to 204 nM.

Take B7: the “hCRHR1 Luciferase Reporter Assay IC50” value worked out at 14 nM.

As for B8, the “hCRHR1 Luciferase Reporter Assay IC50” value is 3.87 nM and the “mCrhr1 Luciferase Reporter Assay IC50” value is 9.97 nM.

Turning to B9, the “hCRHR1 Luciferase Reporter Assay IC50” value was 15.3 nM.

For B10, the “hCRHR1 Luciferase Reporter Assay IC50” value was 0.572 nM and the “mCrhr1 Luciferase Reporter Assay IC50” value was 2.7 nM.

B11: the “hCRHR1 Luciferase Reporter Assay IC50” value came out at 2.05 nM and the “mCrhr1 Luciferase Reporter Assay IC50” value amounted to 7.32 nM.

Take B12: the “hCRHR1 Luciferase Reporter Assay IC50” value stood at 2.49 nM and the “mCrhr1 Luciferase Reporter Assay IC50” value was found to be 11.5 nM.

Consider B13, for which the “hCRHR1 Luciferase Reporter Assay IC50” value turned out to be 0.531 nM and the “mCrhr1 Luciferase Reporter Assay IC50” value is 2.39 nM.
